Consider two molecules from US20250084178A1 (ARCUS BIOSCIENCES, published 2025).

For test [1], the target named is T1, recombinant human CD39 (soluble) (human, UniProt P49961 38-478, limits assumed).
T1 sequence (looked up): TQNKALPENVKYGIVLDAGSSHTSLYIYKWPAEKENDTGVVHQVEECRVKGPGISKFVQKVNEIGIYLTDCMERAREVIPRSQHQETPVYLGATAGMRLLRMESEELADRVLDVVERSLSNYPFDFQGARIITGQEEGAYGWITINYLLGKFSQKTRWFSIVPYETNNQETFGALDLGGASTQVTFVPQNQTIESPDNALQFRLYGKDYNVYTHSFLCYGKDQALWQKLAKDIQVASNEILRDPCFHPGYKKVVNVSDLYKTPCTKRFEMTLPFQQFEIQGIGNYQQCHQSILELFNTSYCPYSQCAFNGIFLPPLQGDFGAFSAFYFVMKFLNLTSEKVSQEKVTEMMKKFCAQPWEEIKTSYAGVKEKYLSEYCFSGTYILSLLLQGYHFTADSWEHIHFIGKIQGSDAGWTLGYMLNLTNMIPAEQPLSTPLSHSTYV
The test can be described thus: cell-based or functional assay.

For test [2], the target named is T2, human CD39 expressed on the cell surface (human, UniProt P49961 1-510).
T2 sequence: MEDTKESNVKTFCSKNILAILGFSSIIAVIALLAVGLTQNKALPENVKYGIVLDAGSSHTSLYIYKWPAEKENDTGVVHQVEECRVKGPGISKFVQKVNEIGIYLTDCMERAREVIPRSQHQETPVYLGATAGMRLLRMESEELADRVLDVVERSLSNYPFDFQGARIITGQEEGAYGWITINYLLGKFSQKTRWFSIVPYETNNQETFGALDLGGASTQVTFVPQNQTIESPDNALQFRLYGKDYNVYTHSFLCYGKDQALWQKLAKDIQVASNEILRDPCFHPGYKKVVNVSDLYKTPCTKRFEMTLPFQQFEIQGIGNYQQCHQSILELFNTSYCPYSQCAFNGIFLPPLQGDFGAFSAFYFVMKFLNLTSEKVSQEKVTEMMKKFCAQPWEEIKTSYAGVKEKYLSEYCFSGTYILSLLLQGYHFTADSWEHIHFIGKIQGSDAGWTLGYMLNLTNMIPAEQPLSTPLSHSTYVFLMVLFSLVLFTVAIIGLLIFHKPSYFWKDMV
The test can be described thus: cell-based or functional assay.

Test [3] deals with T2, human CD39 expressed on the cell surface. The test can be described thus: cell-based or functional assay. The source holds these as a separate data set.
For test [4] the target is unchanged. Nature of the test: cell-based or functional assay. This is another data set of the same source.
The target in test [5] is T3, soluble His-tagged human CD39 ECD protein (human, UniProt P49961 38-478).
T3 construct: also called human CD39 ECD His-tagged antigen; Sino Biological Cat. No. 16020-H08B
T3 sequence: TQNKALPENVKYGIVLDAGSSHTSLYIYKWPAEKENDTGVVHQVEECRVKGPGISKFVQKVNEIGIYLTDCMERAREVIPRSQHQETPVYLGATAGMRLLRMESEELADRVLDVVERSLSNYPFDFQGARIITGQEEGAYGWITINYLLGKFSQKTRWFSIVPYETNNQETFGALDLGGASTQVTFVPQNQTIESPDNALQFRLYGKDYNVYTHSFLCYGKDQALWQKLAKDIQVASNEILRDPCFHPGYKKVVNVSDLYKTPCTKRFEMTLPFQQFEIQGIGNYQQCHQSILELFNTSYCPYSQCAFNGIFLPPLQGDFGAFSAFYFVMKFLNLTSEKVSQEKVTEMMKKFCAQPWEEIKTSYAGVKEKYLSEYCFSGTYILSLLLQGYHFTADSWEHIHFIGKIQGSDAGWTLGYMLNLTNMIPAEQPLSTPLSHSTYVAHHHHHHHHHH
The test can be described thus: SPR, monovalent affinity mode; average over seven surface densities. Background: In SPR one partner is held on a chip, and binding of the other changes the refractive index at the surface.

The target in test [6] is T2, human CD39 expressed on the cell surface. The test can be described thus: flow cytometry on human PBMCs gated on CD19+ B cells, 0 uM ATP (N = 8).
Test [7] shares this target. Nature of the test: flow cytometry on human PBMCs gated on CD14+ monocytes, 0 uM ATP (N = 8). On the technique in general: In flow cytometry, cells or beads pass a laser one at a time.
For test [8] the target is unchanged. The test can be described thus: flow cytometry on human PBMCs gated on CD19+ B cells, 400 uM ATP (N = 6).
The target is the same in test [9]. Nature of the test: flow cytometry on human PBMCs gated on CD14+ monocytes, 400 uM ATP (N = 6).
Test [10] shares this target. The test can be described thus: flow cytometry on human PBMCs gated on CD19+ B cells, one donor, 0 µM ATP.
Test [11] shares this target. The test can be described thus: flow cytometry on human PBMCs gated on CD19+ B cells, one donor, 400 µM ATP.
For test [12], the target named is T3, soluble His-tagged human CD39 ECD …. The test can be described thus: SPR, bivalent avidity mode (CD39 ECD immobilized, antibody analyte); Rmax 420.45 RU surface.
Test [13] has the same target. Nature of the test: SPR, bivalent avidity mode (CD39 ECD immobilized, antibody analyte); Rmax 524.16 RU surface.
The target is the same in test [14]. Nature of the test: SPR, bivalent avidity mode; average over six surface densities; average of different density surfaces; CD39 ECD immobilized.
For test [15] the target is unchanged. Nature of the test: SPR, bivalent avidity mode; average over six surface densities.
In test [16] the target is T2, human CD39 expressed on the cell surface. The test can be described thus: competition flow cytometry on MOLP-8 cells, competitor hu39.1_IGG4.P-AF647.
The target of test [17] is T3, soluble His-tagged human CD39 ECD …. Nature of the test: SPR, bivalent avidity mode (CD39 ECD immobilized, antibody analyte); Rmax 896.01 RU surface.

B1: hu39.5_IGG1.AA (antibody, human IgG1, kappa, L234A L235A)
heavy: not shown
light: DTVLTQSPASLAVSPGQRATITCRASEGVKSYMHWYQQKPGQPPKLLIYKASNLASGVPARFSGSGSGTDFTLTINPVEADDTANYYCQQSWNDPTFGQGTKLEIKRTVAAPSVFIFPPSDEQLKSGTASVVCLLNNFYPREAKVQWKVDNALQSGNSQESVTEQDSKDSTYSLSSTLTLSKADYEKHKVYACEVTHQGLSSPVTKSFNRGEC
notes: humanized variant of antibody 39, human IgG1 L234A/L235A
The EC50 is the concentration at which the effect is half-maximal. A low value points to higher potency in that assay. As a reminder, the EC50 (read off the curve) is the concentration that produces a half-maximal response. Read a high EC50 (read off the curve) as lower potency in that assay. Take B1: the “IC50, inhibition of recombinant CD39 enzymatic activity, 20 uM ATP” value in [1] came to 0.19 nM. In addition, the “Max Inhibition (%), recombinant CD39, 20 uM ATP” value in test [1] was found to be 80%. Further, the “IC50, CD39 enzymatic inhibition on THP-1 cells, 20 uM ATP” value in test [2] was 0.075 nM. In addition, the “Max Inhibition (%), THP-1 cells” value in [2] was 55%. Also, in [3], the “IC50, CD39 enzymatic inhibition on human monocytes, 20 uM ATP” value is 0.1 nM. Moreover, in [3], the “Max Inhibition (%), human monocytes, 20 uM ATP” value amounted to 69%. Moreover, in test [4], the “IC50, CD39 enzymatic inhibition on human monocytes, 400 uM ATP” value was found to be 0.083 nM. Moreover, in [4], the “Max Inhibition (%), human monocytes, 400 uM ATP” value came out at 62%. For the same molecule, the Kd stood at 0.24 nM in test [5], 0.00998 nM in [12], 0.00656 nM in test [13] and 0.01 nM in test [14]. Besides, the EC50 in [6] is 0.2 nM; in test [7], 0.3 nM; in test [8] it was 0.3 nM; in [9] it was 0.5 nM. Further, the “EC50 (read off the curve)” value in test [10] and in [11] was around 0.2 nM in each case.

B2: hu31.4_IGG1.AA (antibody, human IgG1, kappa, L234A L235A)
heavy: not shown
light: DIVLTQSPALAVSPGQRATITCRTQQTVDHYGTTYMNWYQQKPGQPPKLLIYLASSLASGVPARFSGSGSGTDFTLTINPVEADDTANYYCQQSRNLWTFGGGTKVEIKRTVAAPSVFIFPPSDEQLKSGTASVVCLLNNFYPREAKVQWKVDNALQSGNSQESVTEQDSKDSTYSLSSTLTLSKADYEKHKVYACEVTHQGLSSPVTKSFNRGEC
notes: humanized variant of antibody 31, human IgG1 L234A/L235A
For B2, the “IC50, inhibition of recombinant CD39 enzymatic activity, 20 uM ATP” value in test [1] was determined as 0.3 nM. For the same molecule, the “Max Inhibition (%), recombinant CD39, 20 uM ATP” value in test [1] was determined as 86%. Also, the “IC50, CD39 enzymatic inhibition on THP-1 cells, 20 uM ATP” value in test [2] worked out at 0.53 nM. In addition, in test [2], the “Max Inhibition (%), THP-1 cells” value worked out at 62%. In addition, the “IC50, CD39 enzymatic inhibition on human monocytes, 20 uM ATP” value in test [3] is 1 nM. Further, in test [3], the “Max Inhibition (%), human monocytes, 20 uM ATP” value amounted to 69%. Also, in test [4], the “IC50, CD39 enzymatic inhibition on human monocytes, 400 uM ATP” value was 0.7 nM. Further, in test [4], the “Max Inhibition (%), human monocytes, 400 uM ATP” value came to 63%. In addition, the Kd is 0.3 nM in test [15], 0.19 nM in test [5] and 0.105 nM in test [17]. For the same molecule, the EC50 in test [6] and in test [8] was 1 nM each time. In addition, the “Max Competition” value in [16] is -22%. In addition, the “EC50 (read off the curve)” value in test [10] and in [11] was around 2 nM in each case.
